Tests used:
Ran = assay: cell-based or functional assay
[1] = target: human Ha-Ras (1st to 189th residues) (UniProt P01112)
[2] = target: human Rap1A (Glu63) (1st to 184th residues) (UniProt P62834)
[3] = target: human RhoA (1st to 193 residues) GST fusion protein (UniProt P61586)
[4] = target: yeast Rsr1 (1st to 272nd residues) (UniProt P13856)
yeast Rsr1 (1st to 272nd residues), sequence (P13856 whole entry): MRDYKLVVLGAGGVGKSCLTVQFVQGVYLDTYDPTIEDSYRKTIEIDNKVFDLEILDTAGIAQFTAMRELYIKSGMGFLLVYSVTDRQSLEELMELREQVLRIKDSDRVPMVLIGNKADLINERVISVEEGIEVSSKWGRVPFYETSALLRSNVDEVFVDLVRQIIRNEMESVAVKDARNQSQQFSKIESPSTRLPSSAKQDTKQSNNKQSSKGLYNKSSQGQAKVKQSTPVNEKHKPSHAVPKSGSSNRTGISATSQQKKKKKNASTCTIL

fusion protein of human GAP3 (75th to 663rd amino acid residues) and GST, sequence (chain, as listed by the source): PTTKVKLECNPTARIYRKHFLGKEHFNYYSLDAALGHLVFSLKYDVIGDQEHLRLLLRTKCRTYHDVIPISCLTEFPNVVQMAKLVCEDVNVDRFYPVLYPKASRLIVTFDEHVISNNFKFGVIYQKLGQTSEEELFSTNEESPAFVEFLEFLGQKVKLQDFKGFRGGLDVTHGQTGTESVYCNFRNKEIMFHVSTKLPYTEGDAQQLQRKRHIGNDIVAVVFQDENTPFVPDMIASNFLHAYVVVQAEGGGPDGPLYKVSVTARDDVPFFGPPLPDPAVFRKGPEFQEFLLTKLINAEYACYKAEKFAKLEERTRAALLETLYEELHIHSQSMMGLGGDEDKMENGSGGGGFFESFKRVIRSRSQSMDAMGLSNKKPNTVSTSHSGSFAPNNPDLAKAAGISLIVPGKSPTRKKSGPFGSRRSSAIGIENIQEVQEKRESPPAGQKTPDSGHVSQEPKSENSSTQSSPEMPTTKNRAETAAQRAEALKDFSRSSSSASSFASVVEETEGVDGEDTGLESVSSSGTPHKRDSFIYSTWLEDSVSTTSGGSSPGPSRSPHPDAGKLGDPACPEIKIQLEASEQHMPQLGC
human RhoA (1st to 193 residues) GST fusion protein, sequence (P61586 whole entry, the tested form may be a part): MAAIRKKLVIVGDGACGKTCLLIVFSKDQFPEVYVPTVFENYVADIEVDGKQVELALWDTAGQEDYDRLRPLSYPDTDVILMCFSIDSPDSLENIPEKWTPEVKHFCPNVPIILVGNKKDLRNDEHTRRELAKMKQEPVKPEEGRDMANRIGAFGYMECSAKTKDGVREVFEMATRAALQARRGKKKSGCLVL
human Ha-Ras (1st to 189th residues), sequence (P01112 whole entry, looked up): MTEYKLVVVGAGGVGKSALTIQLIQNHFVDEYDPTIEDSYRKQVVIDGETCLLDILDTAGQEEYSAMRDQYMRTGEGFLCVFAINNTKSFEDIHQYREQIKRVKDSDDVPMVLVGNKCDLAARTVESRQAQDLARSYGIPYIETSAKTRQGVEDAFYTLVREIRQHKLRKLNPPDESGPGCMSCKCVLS
human Rap1A (Glu63) (1st to 184th residues), sequence (P62834 whole entry, looked up, the tested form may be a part): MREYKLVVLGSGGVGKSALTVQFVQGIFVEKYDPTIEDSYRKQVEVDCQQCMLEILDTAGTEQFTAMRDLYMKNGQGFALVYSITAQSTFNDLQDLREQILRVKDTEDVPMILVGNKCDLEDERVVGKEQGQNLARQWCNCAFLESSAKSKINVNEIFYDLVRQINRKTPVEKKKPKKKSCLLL

| Substance | EC16 (µg/ml), activation of Ran GTPase (Ran) [µg/mL] | Stimulation (times) of GTPase activity [1] [times] | Stimulation (times) of GTPase activity [2] [times] | Stimulation (times) of GTPase activity [3] [times] | Stimulation (times) of GTPase activity [4] [times] |
| --- | --- | --- | --- | --- | --- |
| p190C(Rho GAP) (enzyme) | 150 |  |  |  |  |
| fusion protein of human GAP3 (75th to 663rd amino acid residues) and GST |  | 0 | 10 | 0 | 7 |
| fusion protein of human GAP3 (75th to 663rd amino acid residues) and GST (from UniProt P47736 75-663) (enzyme) | 130 |  |  |  |  |
| NF1-GDR(Ras GAP) (enzyme) | 300 |  |  |  |  |
